Experimental data taken from patent publication US20080058263A1 (published 2008).

What was measured:
Experiment in all cases: receptor-Fc IP
[1] = target: T1, VEGFR-3-Fc (UniProt P35916 25-328)
T1 construct: domain: first three Ig domains; conditioned supernatant of 293T cells; also called VEGFR-3-Fc fusion protein; not shown: Fc fragment of the pIg vector
T1 sequence (looked up): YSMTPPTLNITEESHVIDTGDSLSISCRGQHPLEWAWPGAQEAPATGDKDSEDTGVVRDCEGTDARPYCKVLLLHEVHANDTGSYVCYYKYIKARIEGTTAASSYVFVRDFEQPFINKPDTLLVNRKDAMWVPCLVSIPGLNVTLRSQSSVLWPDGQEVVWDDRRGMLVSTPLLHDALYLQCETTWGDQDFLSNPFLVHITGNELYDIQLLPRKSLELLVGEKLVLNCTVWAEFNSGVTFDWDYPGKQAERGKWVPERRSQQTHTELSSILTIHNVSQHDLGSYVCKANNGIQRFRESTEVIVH
Method in brief: (§1)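 fusion protein at 400 ng/ml in an IP mix (PBS, 1.5% BSA, 0.06% Tween 20, 3 μg/ml heparin) was combined with sample supernatant at a 1:2 ratio. Bound ligand captured by immunoprecipitation with pentahistidine antibody.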

[2] = target: T2, VEGFR-2-Fc (UniProt P35968 20-322)
T2 construct: domain: first 3 Ig domains; conditioned supernatant of 293T cells; also called VEGFR-2-Fc fusion protein; not shown: Fc fragment of the pIg vector
Method in brief: as §1

[3] = target: T3, VEGFR-1-Fc (UniProt P17948 27-338)
T3 construct: domain: first three Ig domains; expressed in Drosophila S2 cells, purified on Protein A sepharose; also called VEGFR-1-Fc fusion protein; not shown: Fc fragment from the Signal-pIgPlus vector
Method in brief: as §1

Measured: binding result

T2 sequence (P35968 20-322): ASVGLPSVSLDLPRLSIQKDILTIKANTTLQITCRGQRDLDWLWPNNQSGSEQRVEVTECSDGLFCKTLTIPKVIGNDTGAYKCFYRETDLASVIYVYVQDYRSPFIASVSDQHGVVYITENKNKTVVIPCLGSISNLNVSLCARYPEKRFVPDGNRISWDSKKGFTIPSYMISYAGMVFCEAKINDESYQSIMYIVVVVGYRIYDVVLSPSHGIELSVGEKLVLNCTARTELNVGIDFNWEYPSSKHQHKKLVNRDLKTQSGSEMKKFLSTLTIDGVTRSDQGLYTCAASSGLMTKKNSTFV
T3 sequence (P17948 27-338): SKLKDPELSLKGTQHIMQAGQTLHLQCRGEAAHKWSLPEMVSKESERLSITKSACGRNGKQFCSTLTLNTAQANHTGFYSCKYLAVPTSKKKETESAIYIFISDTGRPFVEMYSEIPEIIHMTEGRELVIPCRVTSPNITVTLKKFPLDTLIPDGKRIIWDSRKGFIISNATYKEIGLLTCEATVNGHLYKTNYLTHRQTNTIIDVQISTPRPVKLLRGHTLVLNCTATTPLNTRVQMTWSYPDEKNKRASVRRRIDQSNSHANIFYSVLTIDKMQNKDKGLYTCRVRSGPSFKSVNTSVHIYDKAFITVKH

B1: 34-11 (ligand)
chain: GQNHHEVVKSIDNEWRKTQCMPIETLVDIFQEFGVATNTFFKPSCVPLMRCGGCCNSEGLQCVPTEESNITMQIMRITVPLSQGPKPVTISFLQHNKCECRPKKD
no binding: all assays above

B2: 33-2 (ligand)
chain: GQNHHEVVKSIDNEWRKTQCMPIETLVDIFQEYPDEIEYIFKPPCVSVYRCGGCCNDEGLECMNTSTSYLSKTLFEIKPHQGQHIGEMSFLQHNKCECRPKKD
no binding: all assays above

B3: 33-4 (ligand)
chain: GQNHHEVVKSIDNEWRKTQCMPIETLVDIFQEYPDEIEYIFKPPCVSVYRCGGCCNSEGLQCMNTSTSYLSKTLFEIKPHQGQHIGEMSFLQHNKCECRPKKD
no binding: all assays above

B4: 33-6 (ligand)
chain: GQNHHEVVKSIDNEWRKTQCMPIETLVDIFQEYPDEIEYIFKPPCVSVYRCGGCCNDEGLECMNTSTSYLSKTLFEIKPHQGQHIGEMSFANHTSCRCMSKLD
no binding: all assays above

B5: 33-8 (ligand)
chain: GQNHHEVVKSIDNEWRKTQCMPIETLVDIFQEYPDEIEYIFKPPCVSVYRCGGCCNSEGLQCMNTSTSYLSKTLFEIKPHQGQHIGEMSFANHTSCRCMSKLD
no binding: all assays above

B6: 33-14 (ligand)
chain: GQNHHEVVKSIDNEWRKTQCMPIETLVDIFQEYPDEIEYIFKPPCVSVYRCGGCCNDEGLECMNTSTSYLSKTLFEITVPLSQGPKPVTISFANHTSCRCMSKLD
no binding: all assays above

B7: 33-16 (ligand)
chain: GQNHHEVVKSIDNEWRKTQCMPIETLVDIFQEYPDEIEYIFKPPCVSVYRCGGCCNSEGLQCMNTSTSYLSKTLFEITVPLSQGPKPVTISFANHTSCRCMSKLD
no binding: all assays above

B8: 23-13 (ligand)
chain: AHYNTEILKSIDNEWRKTQCMPREVCIDVGKEYPDEIEYIFKPPCVSVYRCGGCCNDEGLECVPTEESNITMQIMRITVPLSQGPKPVTISFANHTSCRCMSKLD
no binding: all assays above

B9: 23-15 (ligand)
chain: AHYNTEILKSIDNEWRKTQCMPREVCIDVGKEYPDEIEYIFKPPCVSVYRCGGCCNSEGLQCVPTEESNITMQIMRITVPLSQGPKPVTISFANHTSCRCMSKLD
no binding: all assays above

B10: 31-4 (ligand)
chain: GQNHHEVVKSIDNEWRKTQCMPIETLVDIFQEYPDEIEYIFKPSCVPLMRCGGCCNDEGLECVPTEESNITMQIMRITVPLSQGPKPVTISFANHTSCRCMSKLD
no binding: all assays above

B11: 33-13 (ligand)
chain: GQNHHEVVKSIDNEWRKTQCMPIETLVDIFQEYPDEIEYIFKPPCVSVYRCGGCCNDEGLECVPTEESNITMQIMRITVPLSQGPKPVTISFANHTSCRCMSKLD
no binding: all assays above

B12: 34-13 (ligand)
chain: GQNHHEVVKSIDNEWRKTQCMPIETLVDIFQEFGVATNTFFKPSCVPLMRCGGCCNDEGLECVPTEESNITMQIMRITVPLSQGPKPVTISFANHTSCRCMSKLD
no binding: all assays above

B13: 33-15 (ligand)
chain: GQNHHEVVKSIDNEWRKTQCMPIETLVDIFQEYPDEIEYIFKPPCVSVYRCGGCCNSEGLQCVPTEESNITMQIMRITVPLSQGPKPVTISFANHTSCRCMSKLD
no binding: all assays above

B14: 23-1 (ligand)
chain: AHYNTEILKSIDNEWRKTQCMPREVCIDVGKEYPDEIEYIFKPPCVSVYRCGGCCNDEGLECVPTEESNITMQIMRIKPHQGQHIGEMSFLQHNKCECRPKKD
no binding: all assays above

B15: 21-1 (ligand)
chain: AHYNTEILKSIDNEWRKTQCMPREVCIDVGKEYPDEIEYIFKPSCVPLMRCGGCCNDEGLECVPTEESNITMQIMRIKPHQGQHIGEMSFLQHNKCECRPKKD
no binding: all assays above

B16: 23-7 (ligand)
chain: AHYNTEILKSIDNEWRKTQCMPREVCIDVGKEYPDEIEYIFKPPCVSVYRCGGCCNSEGLQCVPTEESNITMQIMRIKPHQGQHIGEMSFANHTSCRCMSKLD
no binding: all assays above

B17: 23-3 (ligand)
chain: AHYNTEILKSIDNEWRKTQCMPREVCIDVGKEYPDEIEYIFKPPCVSVYRCGGCCNSEGLQCVPTEESNITMQIMRIKPHQGQHIGEMSFLQHNKCECRPKKD
no binding: all assays above

B18: 33-5 (ligand)
chain: GQNHHEVVKSIDNEWRKTQCMPIETLVDIFQEYPDEIEYIFKPPCVSVYRCGGCCNDEGLECVPTEESNITMQIMRIKPHQGQHIGEMSFANHTSCRCMSKLD
no binding: all assays above

B19: 33-7 (ligand)
chain: GQNHHEVVKSIDNEWRKTQCMPIETLVDIFQEYPDEIEYIFKPPCVSVYRCGGCCNSEGLQCVPTEESNITMQIMRIKPHQGQHIGEMSFANHTSCRCMSKLD
no binding: all assays above

B20: 34-1 (ligand)
chain: GQNHHEVVKSIDNEWRKTQCMPIETLVDIFQEFGVATNTFFKPSCVPLMRCGGCCNDEGLECVPTEESNITMQIMRIKPHQGQHIGEMSFLQHNKCECRPKKD
no binding: all assays above

B21: 34-3 (ligand)
chain: GQNHHEVVKSIDNEWRKTQCMPIETLVDIFQEFGVATNTFFKPSCVPLMRCGGCCNSEGLQCVPTEESNITMQIMRIKPHQGQHIGEMSFLQHNKCECRPKKD
no binding: all assays above

B22: 34-5 (ligand)
chain: GQNHHEVVKSIDNEWRKTQCMPIETLVDIFQEFGVATNTFFKPSCVPLMRCGGCCNDEGLECVPTEESNITMQIMRIKPHQGQHIGEMSFANHTSCRCMSKLD
no binding: all assays above

B23: 34-7 (ligand)
chain: GQNHHEVVKSIDNEWRKTQCMPIETLVDIFQEFGVATNTFFKPSCVPLMRCGGCCNSEGLQCVPTEESNITMQIMRIKPHQGQHIGEMSFANHTSCRCMSKLD
no binding: all assays above
